We go through two molecules from patent publication US10117953B2, “Antibody drug conjugates” (Novartis AG, priority 2013, dated 2018).

One data set deals with Uke-1 cells. The experiment in a line: ADCC activity in vitro (Calcein release, NK3.3 effector cells). As to conditions: effector to target ratio 20 to 1. Format: cell-based, human. The method, then:
In brief, Uke-1 cells were stained with Calcein acetoxy-methyl ester (Calcein-AM; Sigma-Aldrich catalog #17783-5MG, St. Louis, Mo.), washed twice, pipetted into a 96-well microtiterplate (96 well, U-bottomed, clear plastic; Corning Costar, catalog #650 160, Tewksbury, Mass.) at a concentration of 5000 cells per well and pre-incubated for 10 min with a serial dilution of the above mentioned antibodies and proteins (from 50,000 to 0.003 μg per ml) before adding the effector NK3.3 cells for 1 hour in an effector to target ratio of 20 to 1. In order to calculate the antibody specific lysis of the target cells, a parallel incubation of target cells only without antibody or effector cells served as a baseline and negative control, whereas the positive control or maximal lysis or hundred percent specific lysis was determined by lysis of target cells only with a 1% Triton-X 100 solution. […] Following a co-incubation of target and effector cells, the microtiterplate was centrifuged and an aliquot of the supernatant fluid was transferred to another microtiterplate (96 well, flat-bottomed, black with clear bottom; Corning Costar, catalog #3904, Tewksbury, Mass.) and the concentration of free Calcein in solution was determined with a fluorescence counter (Victor 3® multilabel counter, Perkin Elmer, Waltham, Mass.).

Data set [1] concerns GIST T1 subcutaneous tumor xenograft. The experiment in a line: Efficacy of murine 9P3 ADCs, MCC-DM1 vs SPDB-DM4. It is filed as in vivo, mouse. To be noted: single i.v. dose 10 mg/kg, unconjugated antibody.
For data set [2], the target named is T1, cKIT extra-cellular domain (SEQ ID NO:160) (Homo sapiens, UniProt P10721).
T1 construct: LENGTH: 503 amino acids; made in house; host or cells: HEK293 derived cell lines (293FS), transient transfection
The experiment in a line: Epitope mapping by deuterium exchange mass spectrometry (HDx-MS). It is filed as binding. To be noted: Region 1 residues 109-119, Region 2 residues 185-196. The method, then:
In these experiments, the deuterium uptake of cKIT extra-cellular domain (SEQ ID NO:160, see below) was measured in the absence and presence of a therapeutic mAb, 9P3. Regions in cKIT that show a decrease in deuterium uptake upon binding of the antibody are likely to be involved in the epitope; however, due to the nature of the measurement it is also possible to detect changes remote from the direct binding site (allosteric effects). Usually, the regions that have the greatest amount of protection are involved in direct binding although this may not always be the case. In order to delineate direct binding events from allosteric effects orthogonal measurements (e. g. X-ray crystallography, alanine mutagenesis) are necessary.
The cKIT epitope mapping experiments are performed on a Waters Synapt® G2 HDx-MS platform, which includes LEAP® robot system, nanoACQUITY® UPLC System, and Synapt® G2 mass spectrometer. In this method, triplicate control experiments are carried out as follows. 300 pmol (1.4 mg/ml) of cKIT antigen is diluted into 110 ul of 95% deuterated PBS buffer (pH 7.4) and incubates at room temperature on a bench rotator for 25 minutes (% D=85.5%). Deuterium exchange is quenched by 1:1 dilution with cold quench buffer (6M Urea and 1M TCEP pH=2.5) on ice for 5 min. […] The sample is analyzed using the same on-line pepsin digestion/LC-MS setup as the control experiment.

T1 sequence (P10721 with tags, fused parts or gaps isoform P10721-2): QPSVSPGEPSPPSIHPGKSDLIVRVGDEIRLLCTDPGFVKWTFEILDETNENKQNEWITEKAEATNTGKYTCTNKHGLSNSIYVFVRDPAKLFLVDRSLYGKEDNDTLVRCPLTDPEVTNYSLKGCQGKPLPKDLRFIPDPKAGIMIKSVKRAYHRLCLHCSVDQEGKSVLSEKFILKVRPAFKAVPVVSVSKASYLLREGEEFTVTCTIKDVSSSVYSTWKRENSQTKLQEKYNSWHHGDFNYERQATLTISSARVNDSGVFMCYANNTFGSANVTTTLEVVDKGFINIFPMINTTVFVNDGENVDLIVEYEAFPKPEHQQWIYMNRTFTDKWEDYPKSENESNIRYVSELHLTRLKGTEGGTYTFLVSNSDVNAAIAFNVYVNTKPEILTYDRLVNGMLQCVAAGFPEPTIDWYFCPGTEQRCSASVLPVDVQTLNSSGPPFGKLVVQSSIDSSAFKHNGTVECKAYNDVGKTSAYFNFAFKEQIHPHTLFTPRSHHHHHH

With MabCampath [reference compound], in the data set on Uke-1 cells, the ADCC result was “mediated ADCC killing of the target cells”.

B1: 9P3: hybridoma derived anti-cKIT antibody; VH SEQ ID NO.9, VL SEQ ID NO.18 (antibody, V domains shown)
VH: EVRLVESEGGLVQPRSSMKLSCTASGFTFSDYYMAWVRQVPEKGLEWVANINYDGSSTYYLDSLKSRFIISRDNAKNILYLQMSSLKSEDTATYYCARGDYYGTTYWYFDVWGTGTTVTVSS
VL: DIQMTQTTSSLSASLGDRVTISCRASQDISNYLNWYQQKPDGTVKLLIYYTSRLQSGVPSRFSGSGSGTDYSLTISNLEQEDIATYFCQQGKKLWSFGGGTKLEIKR
B1: the antitumor efficacy entry in data set [1] is “Neither the control non-specific IgG1 ADCs nor the unconjugated 9P3 were efficacious”. In data set [2], the “epitope (regions protected from deuterium exchange)” value is on record as “discontinuous epitope that is remote from the SCF binding sites”.
